Results reported in article PMC9163188, “USP53 plays an antitumor role in hepatocellular carcinoma through deubiquitination of cytochrome c” (Oncogenesis, 2022).

T1: GST-HA-USP53 (UniProt Q70EK8 1-1073)
T1 construct: also called GST-HA-USP53 fusion protein; source: E. coli, purified
T1 sequence (looked up): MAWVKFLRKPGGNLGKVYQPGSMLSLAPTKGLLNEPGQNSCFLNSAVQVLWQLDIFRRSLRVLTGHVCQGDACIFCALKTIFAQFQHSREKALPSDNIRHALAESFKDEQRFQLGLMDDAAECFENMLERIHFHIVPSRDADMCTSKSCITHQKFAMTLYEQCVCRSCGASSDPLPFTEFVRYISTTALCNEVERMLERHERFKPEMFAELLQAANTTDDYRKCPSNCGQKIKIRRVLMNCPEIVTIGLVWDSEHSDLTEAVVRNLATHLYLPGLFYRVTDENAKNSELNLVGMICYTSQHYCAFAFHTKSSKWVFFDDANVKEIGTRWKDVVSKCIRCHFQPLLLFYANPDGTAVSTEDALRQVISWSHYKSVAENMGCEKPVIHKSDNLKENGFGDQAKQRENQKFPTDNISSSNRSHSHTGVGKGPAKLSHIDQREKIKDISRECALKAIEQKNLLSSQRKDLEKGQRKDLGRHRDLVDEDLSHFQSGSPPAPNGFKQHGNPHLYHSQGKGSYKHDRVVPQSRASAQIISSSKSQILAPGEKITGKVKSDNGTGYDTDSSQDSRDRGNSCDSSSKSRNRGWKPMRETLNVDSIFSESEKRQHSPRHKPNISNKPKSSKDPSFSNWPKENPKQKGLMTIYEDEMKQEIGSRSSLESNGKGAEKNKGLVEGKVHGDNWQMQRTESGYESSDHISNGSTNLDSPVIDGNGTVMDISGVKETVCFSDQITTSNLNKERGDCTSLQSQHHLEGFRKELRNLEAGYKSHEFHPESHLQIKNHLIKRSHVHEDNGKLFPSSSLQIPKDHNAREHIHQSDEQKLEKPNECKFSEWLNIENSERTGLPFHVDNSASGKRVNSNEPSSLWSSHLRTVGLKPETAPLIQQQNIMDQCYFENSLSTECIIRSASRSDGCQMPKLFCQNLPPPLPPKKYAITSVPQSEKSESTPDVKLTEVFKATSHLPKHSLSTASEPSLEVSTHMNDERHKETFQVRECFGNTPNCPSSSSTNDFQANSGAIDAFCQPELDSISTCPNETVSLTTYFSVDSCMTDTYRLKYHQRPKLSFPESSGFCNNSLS

T2: Flag-USP53 (of the GST pull-down) (UniProt Q70EK8 1-1073)
T2 construct: ubiquitin-specific peptidase 53 (USP53); If it came from transfected HEK-293T cells it would be the same construct as m1
T2 sequence (looked up): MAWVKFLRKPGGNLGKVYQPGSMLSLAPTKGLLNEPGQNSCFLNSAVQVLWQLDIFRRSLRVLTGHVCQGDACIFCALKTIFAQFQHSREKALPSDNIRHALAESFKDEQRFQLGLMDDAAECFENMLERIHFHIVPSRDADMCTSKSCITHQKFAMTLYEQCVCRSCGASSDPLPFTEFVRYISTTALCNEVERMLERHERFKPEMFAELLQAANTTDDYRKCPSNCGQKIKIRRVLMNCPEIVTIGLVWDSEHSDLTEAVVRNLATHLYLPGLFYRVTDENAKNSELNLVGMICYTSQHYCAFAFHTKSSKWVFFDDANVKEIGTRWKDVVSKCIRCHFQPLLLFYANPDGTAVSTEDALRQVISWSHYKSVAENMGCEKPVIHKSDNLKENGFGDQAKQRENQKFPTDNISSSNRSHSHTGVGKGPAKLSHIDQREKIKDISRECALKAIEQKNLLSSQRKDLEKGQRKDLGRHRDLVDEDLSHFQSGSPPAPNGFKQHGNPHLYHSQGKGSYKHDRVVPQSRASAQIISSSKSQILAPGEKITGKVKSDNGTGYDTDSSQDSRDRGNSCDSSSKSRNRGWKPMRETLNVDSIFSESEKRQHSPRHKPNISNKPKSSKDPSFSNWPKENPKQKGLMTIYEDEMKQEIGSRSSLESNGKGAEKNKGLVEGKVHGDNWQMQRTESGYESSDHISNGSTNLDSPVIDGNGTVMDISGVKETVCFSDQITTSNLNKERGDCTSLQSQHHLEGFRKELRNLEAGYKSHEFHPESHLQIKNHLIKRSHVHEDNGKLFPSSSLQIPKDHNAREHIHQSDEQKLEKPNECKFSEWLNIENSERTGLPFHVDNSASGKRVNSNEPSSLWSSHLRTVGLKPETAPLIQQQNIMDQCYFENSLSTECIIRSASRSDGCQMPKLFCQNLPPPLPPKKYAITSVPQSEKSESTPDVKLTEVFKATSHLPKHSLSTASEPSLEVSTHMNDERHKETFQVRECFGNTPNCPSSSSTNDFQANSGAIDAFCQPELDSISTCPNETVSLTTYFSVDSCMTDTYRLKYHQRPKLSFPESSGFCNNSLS


Assays:
GST-HA-USP53 = target: T1, GST-HA-USP53; experiment: pull-down; about 100 µg GST-HA-USP53 (or GST-HA) on 50 µL glutathione agarose, 3 washes with PBST, about 100 µg Flag-CYCS fusion protein added, overnight at 4 °C; eluted with 10 mM glutathione in PBS pH 8.0, immunoblot; conditions: both partners purified
[1] = target: T2, Flag-USP53 (of the GST pull-down); experiment: pull-down; purified GST-HA-CYCS on glutathione agarose, Flag-USP53 added; same method as for GST-HA-USP53 with Flag-CYCS; conditions: both partners purified

| Binder | binding result (GST-HA-USP53) | binding result [1] |
| --- | --- | --- |
| Flag-CYCS (natural protein, cytochrome c (CYCS); plasmid provided by …; also called Flag-CYCS fusion protein; source: E. coli (plasmid transfected into E. coli)) not shown | binds | – |
| GST-HA-CYCS (natural protein, cytochrome c (CYCS); plasmid provided by …; also called GST-HA-CYCS fusion protein; source: purified (same method as for GST-HA-USP53: E. coli)) not shown | – | binds |
